{"source": "paper PMC6426755", "origin": "cited, not measured here", "molecular_target": "CCL21 (Homo sapiens) (UniProt O00585)", "sequence (O00585 24-134)": "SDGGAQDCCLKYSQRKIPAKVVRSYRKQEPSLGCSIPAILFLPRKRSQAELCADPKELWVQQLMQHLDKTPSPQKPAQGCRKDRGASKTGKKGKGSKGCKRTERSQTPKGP", "assay": "SPR (Biacore)", "data": [{"substance": "podoplanin (from UniProt Q86YL7)", "values": [{"measurement": "Kd", "value": 70, "unit": "nM"}]}]}
